Here are results for 2 molecules from patent publication US20070167369A1, “Novel use of isolated polypeptide comprising four FAS-1 domains, EM1 domain and RGD motif” (KYUNGPOOK NATIONAL UNIVERSITY INDUSTRY-ACADEMIC COOPERATION …, priority 2004, published 2007).

In experiment [1] the test system is HUVECs. Kind of experiment: Transwell migration of endothelial cells toward βig-h3 (Example 4-2). It is filed as cell-based, human. The protocol:
The present inventors tested whether the fas-1 domain has the activity to inhibit the migration of endothelial cells (Nam, J. O. et al., J. Biol. Chem., 278:25902-25909, 2003). Cell migration assay was performed in a transwell plate (8 μm pore size, Costar, Cambridge, Mass.). The undersurface of the membrane was coated with the recombinant βig-h3 His-1-b (10 μg/ml) protein prepared in Example 1, at 4° C., and then, blocked for 1 hour at room temperature with PBS buffer containing 2% BSA. Meanwhile, HUVECs were added with the fas-1 domain (βig-h3 D-IV) prepared in Example 1, and preincubated at 37° C. for 30 minutes. A control was added with 2% BSA. Then, the HUVECs preincubated with the fas-1 domain were suspended in medium at a density of 3×10^5 cells/ml, and 0.1 ml of the cell suspension was added to the upper compartment of the filter. The cells were allowed to migrate at 37° C. for 6-8 hours.
Migration was terminated by removing the cells from the upper compartment of the filter with a cotton swab. The filters were fixed with 8% glutaraldehyde and stained with crystal violet. The extent of cell migration was determined by light microscope, and within each well, cell counting was done in nine randomly selected fields HPF (Microscopic high power fields, x200).

Experiment [2] has as its system HUVECs. Kind of experiment: Migration of endothelial cells toward fibronectin, vitronectin or collagen (Example 5-2). It is filed as cell-based, human. The method, then: The undersurface of a transwell plate was coated with each of fibronectin, vitronectin and collagen, and then, a test was performed in the same manner as in Example 4-2 above.
Experiment [3] relates to blood vessels in Matrigel plugs. Kind of experiment: In vivo Matrigel plug assay (Example 9-2). Set-up: species or system C57/BL6 mice. The protocol:
An in vivo Matrigel plug assay was performed according to the method described by Maeshima, Y. et al., J. Biol. Chem., 275:23745-23750, 2000. 5-6 week old male C57/BL6 mice purchased from Hyochang scientific company, Korea, were used.
First, Matrigel (BD Biosciences, MA) was mixed with 20 units/ml heparin, 150 ng/ml bFGF (basic fibroblast growth factor, R&D system, International, Inc), and 5 μM or 10 μM of the fas-1 domain (pig-h3 D-IV). As a control was treated with PBS. The Matrigel mixture was injected subcutaneously to the C57/BL6 mice. After 7 days, the mice were sacrificed, and the Matrigel plugs were removed and fixed in 4% paraformaldehyde. The Matrigel plugs were embedded in paraffin, sectioned and stained with H&E. Their sections were examined by light microscope, the number of blood vessels from 4-6 HPF (high power fields; x200) was counted and averaged. Each group consisted of 3 or 4 Matrigel plugs.

The next experiment concerns melanoma cells (B16F10). The experiment can be described thus: Proliferation of fas-1-overexpressing melanoma cells, MTT (Example 10-1). The class given is cell-based, murine. To be noted: fas-1 domain overexpressed (fas-1/B16F10) vs pLNCX/B16F10, 48-72 hours. The protocol: cDNA (SEQ ID NO: 65) encoding the fourth fas-1 domain of βig-h3 was cloned into the EcoRI/XhoI sites of a pLNCX retrovirus vector (Clontech Lab. Inc., USA). The resulting recombinant retrovirus vector was named “fas-1/pLNCX”. Packaging cell PT67 (Clontech Lab. Inc., USA) were transfected with the fas-1/pLNCX vector using lipofectamine. The transformed cells were incubated at 37° C. for 48 hours. After completion of the incubation, virus particles present in the culture medium were collected, and filtered one time through a 0.45-μm filter. The filtered virus particles were added to a culture medium of melanoma cells (B16F10), and then allowed to react at 37° C. for 6 hours. The culture medium was replaced with fresh medium, and the transfected cells were screened several times in the presence of 1 mg/ml of G418. Western blot analysis using a βig-h3 antibody was performed to confirm that the fas-1 domain is overexpressed in the screened transfected cells. As a result, fas-1-overexpressing melanoma cells (hereinafter, referred to as “fas-1/B16F10”) were prepared. […]
Each of the fas-1-overexpressing melanoma cells (fas-1/B16F10) and the control cells (pLNCX/B16F10) was suspended in medium at a density of 3×10^4 cells/ml, and 0.1 ml of the cell suspension was added to each well of a 96-well plate. […] Thereafter, the absorbance was measured at 570 nm in a Bio-Rad model 550 microplate reader.

The subject of experiment [4] is HUVECs. Kind of experiment: Endothelial cell adhesion to plates coated with βig-h3 or its fas-1 domains (Example 2). It is filed as cell-based, human. The settings on record: plate coated with 10 μg/ml protein; absorbance 405 nm. The method, then:
Cell adhesion assay was performed according to the method described by Kim, J.-E. et al., J. Biol. Chem., 277:46159-46165, 2002. For this purpose, 10 μg/ml of each of the recombinant proteins (βig-h3 His-1-b, βig-h3 D-I, βig-h3 D-II, βig-h3 D-III and βig-h3 D-IV) prepared in Example 1 was placed into a flat-bottomed 96-well ELISA (enzyme-linked immunosorbent assay) plate (Costar, Corning Inc., NY) and then incubated overnight at 4° C., to coat the surface of the plate. As a control, 2% BSA was coated on the plate. Then, the plate was treated with PBS (phosphate-buffered saline) containing 2% BSA, and blocked at room temperature for one hour.
Meanwhile, HUVECs (human umbilical vein endothelial cells; Clonetics, San Diego, Calif.) were incubated in EGM medium (Clonetics, San Diego, Calif.) containing 2% FBS (Fetal Bovine Serum) under a condition of 37° C. and 5% CO2. The incubated cells were suspended in medium at a density of 3×10^5 cells/ml, and 0.1 ml of the cell suspension was added to each well of the plate. Next, the cells were incubated at 37° C. for 30 minutes and washed one time with PBS buffer to remove cells which had not been attached to the plate. […] The absorbance was measured at a 405-nm in a Bio-Rad model 550 microplate reader. Here, the higher the number of cells adhered to the plate, the higher the absorbance.

B1: fas-1 domain: recombinant protein containing the fourth fas-1 domain of human βig-h3 (SEQ ID NO: 64) (protein, listed as Homo sapiens)
chain: MGTVMDVLKGDNRFSMLVAAIQSAGLTETLNREGVYTVFAPTNEAFRALPPRERSRLLGDAKELANILKYHIGDEILVSGGIGALVRLKSLQGDKLEVSLKNNVVSVNKEPVAEPDIMATNGVVHVITNVL
B1: the “inhibitory effect of endothelial cell migration compared with YH motif-containing peptide fragment of 18 amino acids” value with HUVECs [1] (20 μM fas-1 domain vs 1,000 μM YH peptide) is listed as “higher”. In addition, the “inhibition of migration of endothelial cells promoted by βig-h3” value with HUVECs [1] (transwell coated with βig-h3 His-1-b 10 μg/ml) is “inhibited by the fas-1 domain in a dose-dependent manner”. Moreover, the “inhibition of migration of HUVECs to collagen” value in the experiment on HUVECs [2] (transwell coated with collagen) is reported as “partially inhibited”. In addition, the “inhibition of migration of HUVECs toward fibronectin” value in the experiment with HUVECs [2] (transwell coated with fibronectin) is reported as “completely inhibited”. For the same molecule, the “inhibition of migration of HUVECs toward vitronectin” value in the experiment with HUVECs [2] (transwell coated with vitronectin) is reported as “completely inhibited”. Further, the “in vivo angiogenesis inhibitory effect compared with YH motif-containing peptide fragment of 18 amino acids” value in experiment [3] (5 μM fas-1 domain vs 500 μM YH peptide) was “significantly higher”. Also, the “number of blood vessels in Matrigel plug” value in experiment [3] (5 μM in Matrigel, subcutaneous, 7 days) is listed as “significantly smaller than that in the control”. Further, in experiment [3] (10 μM in Matrigel, subcutaneous, 7 days), the “angiogenesis in Matrigel plug” value is recorded as “perfectly inhibited”. Moreover, the “effect on proliferation of melanoma cells” value in the experiment on melanoma cells (B16F10) was “no effect on the proliferation of melanoma cells”.

B2: truncated βig-h3: recombinant human βig-h3 with EMI domain, all four fas-1 domains and RGD motif; residues 68-653 of SEQ ID NO: 1 (SEQ ID NO: 66) (protein, listed as Homo sapiens)
chain: WYQRKICGKSTVISYECCPGYEKVPGEKGCPAALPLSNLYETLGVVGSTTTQLYTDRTEKLRPEMEGPGSFTIFAPSNEAWASLPAEVLDSLVSNVNIELLNALRYHMVGRRVLTDELKHGMTLTSMYQNSNIQIHHYPNGIVTVNCARLLKADHHATNGVVHLIDKVISTITNNIQQIIEIEDTFETLRAAVAASGLNTMLEGNGQYTLLAPTNEAFEKIPSETLNRILGDPEALRDLLNNHILKSAMCAEAIVAGLSVETLEGTTLEVGCSGDMLTINGKAIISNKDILATNGVIHYIDELLIPDSAKTLFELAAESDVSTAIDLFRQAGLGNHLSGSERLTLLAPLNSVFKDGTPPIDAHTRNLLRNHIIKDQLASKYLYHGQTLETLGGKKLRVFVYRNSLCIENSCIAAHDKRGRYGTLFTMDRVLTPPMGTVMDVLKGDNRFSMLVAAIQSAGLTETLNREGVYTVFAPTNEAFRALPPRERSRLLGDAKELANILKYHIGDEILVSGGIGALVRLKSLQGDKLEVSLKNNVVSVNKEPVAEPDIMATNGVVHVITNVLQPPANRPQERGDELADSALEI
Consider B2, for which the “adhesion of endothelial cells to coated protein” value in the experiment on HUVECs [4] was “mediated the adhesion of endothelial cells”.
